Reference: the supplement of paper PMC7125110
± gives the standard error. For some assays here: This sample holds only a part of the variants without activity.

B1: glmS ribozyme (parent)
chain: AUAAAAGCGCCAGAACUACAGAAAUGUAGUUGACGAGGAGGAGGUUUAUCGAAUUUUCGGCGGAUGCCUCCAAA

Columns and labels:
Conditions in all cases: with glucosamine-6-phosphate
[1] = variants of: B1; test: kcat; higher = faster cleavage; RNA array
Summary of the method: (§1)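 Glucosamine-6-phosphate (40 μM to 10 mM) in HEPES/KCl/Mg(OAc)2 buffer was flowed over sequenced MiSeq chips, and tiles were imaged over ~14 h. Barcoded ribozyme variants there had been transcribed in situ by E. coli RNA polymerase and were tracked through a hybridised Cy3 probe at 37 °C. One- or two-exponential decay fits to per-tile medians, normalised to baseline and to non-cleaving reference variants, gave kobs. kcat and KM came from weighted Michaelis–Menten fits across concentrations.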

[2] = variants of: B1; test: self-cleavage kobs at 40 uM GlcN6P; higher = faster cleavage; RNA array
Summary of the method: as §1

[3] = variants of: B1; test: self-cleavage kobs at 160 uM GlcN6P; higher = faster cleavage; RNA array
Summary of the method: as §1

[4] = variants of: B1; test: self-cleavage kobs at 640 uM GlcN6P; higher = faster cleavage; RNA array
Summary of the method: as §1

[5] = variants of: B1; test: self-cleavage kobs at 2500 uM GlcN6P; higher = faster cleavage; RNA array
Summary of the method: as §1

[6] = variants of: B1; test: self-cleavage kobs at 10000 uM GlcN6P; higher = faster cleavage; RNA array
Summary of the method: as §1

[7] = variants of: B1; test: KM; higher = weaker cofactor use; RNA array
Summary of the method: as §1

Row | Variant | kcat [1] | self-cleavage kobs at 40 uM GlcN6P [2] | self-cleavage kobs at 160 uM GlcN6P [3] | self-cleavage kobs at 640 uM GlcN6P [4] | self-cleavage kobs at 2500 uM GlcN6P [5] | self-cleavage kobs at 10000 uM GlcN6P [6] | KM [7]
1 | C16U A52G | 0.00224 ± 0.00092 s⁻¹ | 3.86e-05 ± 9e-06 s⁻¹ | 9.03e-05 ± 2.1e-05 s⁻¹ | 0.000237 ± 5.8e-05 s⁻¹ | 0.000576 ± 7.9e-05 s⁻¹ | 0.0016 ± 0.00017 s⁻¹ | 
2 | A6C U45G | < 1e-05 s⁻¹ |  |  |  |  |  | 
3 | A53C U55G | 0.00572 ± 0.0016 s⁻¹ | 0.000162 ± 2.2e-05 s⁻¹ | 0.000551 ± 9.1e-05 s⁻¹ | 0.00138 ± 0.00025 s⁻¹ | 0.00261 ± 0.00039 s⁻¹ | 0.00667 ± 0.00076 s⁻¹ | 1640 ± 730 µM
4 | G13A G29U | 5.33e-05 ± 7.9e-06 s⁻¹ |  |  |  | 4.84e-05 ± 1e-05 s⁻¹ | 4.7e-05 ± 8e-06 s⁻¹ | 
5 | A15G C61A | < 1e-05 s⁻¹ |  |  |  |  |  | 
6 | U56G G66A | 0.0089 ± 0.0034 s⁻¹ | 0.00021 ± 3.4e-05 s⁻¹ | 0.00049 ± 0.00011 s⁻¹ | 0.00136 ± 0.00037 s⁻¹ | 0.00405 ± 0.00078 s⁻¹ | 0.00875 ± 0.0018 s⁻¹ | 
7 | U56G G66C | 0.000388 ± 2.1e-05 s⁻¹ |  |  | 9.51e-05 ± 3.1e-05 s⁻¹ | 0.000244 ± 4.9e-05 s⁻¹ | 0.000325 ± 3.9e-05 s⁻¹ | 1800 ± 300 µM
8 | G41U C70A | 0.0306 ± 0.013 s⁻¹ | 0.00288 ± 0.00022 s⁻¹ | 0.00721 ± 0.0009 s⁻¹ | 0.0189 ± 0.0026 s⁻¹ | 0.0568 ± 0.016 s⁻¹ |  | 
9 | A39U U55A | 0.0539 ± 0.0098 s⁻¹ | 0.000396 ± 9.4e-05 s⁻¹ | 0.00146 ± 0.00024 s⁻¹ | 0.00564 ± 0.001 s⁻¹ | 0.0142 ± 0.0033 s⁻¹ | 0.0376 ± 0.0091 s⁻¹ | 5710 ± 1200 µM
10 | A14U G44U | 7.47e-05 ± 1.1e-05 s⁻¹ | < 1e-05 s⁻¹ |  |  | 3.42e-05 ± 8.1e-06 s⁻¹ | 5.55e-05 ± 8.3e-06 s⁻¹ | 3310 ± 1300 µM
11 | A14G A53U | 0.0349 ± 0.012 s⁻¹ | 0.00142 ± 0.00015 s⁻¹ | 0.00482 ± 0.00076 s⁻¹ | 0.011 ± 0.0013 s⁻¹ | 0.0342 ± 0.015 s⁻¹ | 0.0446 ± 0.0086 s⁻¹ | 1060 ± 450 µM
12 | C11U A39C | 0.000759 ± 0.00011 s⁻¹ |  |  | 8.75e-05 ± 1.3e-05 s⁻¹ | 0.000299 ± 5e-05 s⁻¹ | 0.00051 ± 5.5e-05 s⁻¹ | 4650 ± 1100 µM
13 | G44U U56A | 0.000132 ± 9e-06 s⁻¹ | < 1e-05 s⁻¹ |  |  | 6.59e-05 ± 1e-05 s⁻¹ | 0.000102 ± 9.4e-06 s⁻¹ | 2840 ± 550 µM
14 | U30G A39U | 0.00794 ± 0.0035 s⁻¹ | 0.000127 ± 2.3e-05 s⁻¹ | 0.000455 ± 8.4e-05 s⁻¹ | 0.000857 ± 0.00016 s⁻¹ | 0.00224 ± 0.00096 s⁻¹ | 0.00645 ± 0.00095 s⁻¹ | 
15 | C16G A52G | 0.000339 ± 0.0001 s⁻¹ |  |  | 7.43e-05 ± 2.3e-05 s⁻¹ | 0.000119 ± 1.9e-05 s⁻¹ | 0.000262 ± 4.1e-05 s⁻¹ | 
16 | U49G U54G C67A | 0.00023 ± 5.1e-05 s⁻¹ |  |  | 0.000235 ± 5.1e-05 s⁻¹ | 0.000269 ± 7.4e-05 s⁻¹ | 0.000194 ± 3.6e-05 s⁻¹ | 
17 | G13C U47A G59U C67G | 1.81e-05 ± 2.9e-06 s⁻¹ |  |  | < 1e-05 s⁻¹ |  |  | 
18 | A42G A64U | 0.000207 ± 1.6e-05 s⁻¹ |  |  |  | 0.000104 ± 2.3e-05 s⁻¹ | 0.000158 ± 2.2e-05 s⁻¹ | 2880 ± 600 µM
19 | C61A C68A | 1.17e-05 ± 1.8e-06 s⁻¹ |  |  |  |  |  | 

Row | Variant | kcat [1] | self-cleavage kobs at 40 uM GlcN6P [2] | self-cleavage kobs at 160 uM GlcN6P [3] | self-cleavage kobs at 640 uM GlcN6P [4] | self-cleavage kobs at 2500 uM GlcN6P [5] | self-cleavage kobs at 10000 uM GlcN6P [6] | KM [7]
20 | G37C A53C | 1.74e-05 ± 7.2e-06 s⁻¹ |  |  |  |  |  | 
21 | G66A C71G | 0.00165 ± 0.00056 s⁻¹ | 5.97e-05 ± 7.2e-06 s⁻¹ | 0.000141 ± 1.8e-05 s⁻¹ | 0.000486 ± 6.2e-05 s⁻¹ | 0.000935 ± 9.9e-05 s⁻¹ | 0.00264 ± 0.00044 s⁻¹ | 1470 ± 720 µM
22 | C34A G38C | < 1e-05 s⁻¹ |  |  | < 1e-05 s⁻¹ |  |  | 
23 | A12U A36U | 2.03e-05 ± 6.7e-07 s⁻¹ |  |  |  |  |  | 2080 ± 230 µM
24 | A12C G62U C70G | 2.02e-05 ± 4.5e-06 s⁻¹ |  |  |  |  |  | 
25 | A39C C70A | < 1e-05 s⁻¹ | < 1e-05 s⁻¹ |  | < 1e-05 s⁻¹ |  |  | 
26 | G40C C61U | < 1e-05 s⁻¹ | < 1e-05 s⁻¹ | < 1e-05 s⁻¹ | < 1e-05 s⁻¹ |  |  | 
27 | A15G G51U C71A | 1.45e-05 ± 1.7e-06 s⁻¹ |  |  |  |  | < 1e-05 s⁻¹ | 510 ± 210 µM
28 | C50U C67U | 2.42e-05 ± 5.8e-06 s⁻¹ |  |  |  | 3.69e-05 ± 1.4e-05 s⁻¹ |  | 
29 | A52G G66U | 0.00018 ± 2.4e-05 s⁻¹ |  |  | 2.89e-05 ± 1.1e-05 s⁻¹ | 6.2e-05 ± 1.6e-05 s⁻¹ | 0.00013 ± 1.5e-05 s⁻¹ | 4030 ± 1300 µM
30 | A12C U47A G60A | < 1e-05 s⁻¹ |  |  |  |  |  | 
31 | G40A A48G | 4.48e-05 ± 1.1e-05 s⁻¹ | < 1e-05 s⁻¹ |  |  | 4.6e-05 ± 7.9e-06 s⁻¹ | 3.71e-05 ± 7.6e-06 s⁻¹ | 
32 | U55C C68U | 3.04e-05 ± 1.7e-06 s⁻¹ |  |  |  |  | 2.9e-05 ± 9.1e-06 s⁻¹ | 
33 | A12G U56A | 0.00105 ± 0.00021 s⁻¹ |  | 4.26e-05 ± 1.7e-05 s⁻¹ | 7.85e-05 ± 1.1e-05 s⁻¹ | 0.000221 ± 4.8e-05 s⁻¹ | 0.000592 ± 6.2e-05 s⁻¹ | 7960 ± 2300 µM
34 | A33G G59U C68A C71A | 2.2e-05 ± 6.5e-06 s⁻¹ |  |  |  |  |  | 
35 | A33C G38U | < 1e-05 s⁻¹ | < 1e-05 s⁻¹ | < 1e-05 s⁻¹ | < 1e-05 s⁻¹ |  | < 1e-05 s⁻¹ | 
36 | C50G U56A | 3e-05 ± 4.9e-06 s⁻¹ |  |  |  | 4.14e-05 ± 1.9e-05 s⁻¹ |  | 
37 | G13U U57C | 4.31e-05 ± 6.8e-06 s⁻¹ |  |  |  | 3.41e-05 ± 1.3e-05 s⁻¹ | 3.63e-05 ± 1.8e-05 s⁻¹ | 
38 | A15C U45C | 0.000613 ± 8.6e-05 s⁻¹ |  |  | 6.81e-05 ± 1.6e-05 s⁻¹ | 0.000176 ± 3.7e-05 s⁻¹ | 0.000409 ± 7.5e-05 s⁻¹ | 5480 ± 1200 µM
